The values below come from patent US20230210962A1, “CONDITIONING REGIMEN FOR TRANSPLANT” (Hansa Biopharma AB, priority 2020, published 2023).

Data set [1] addresses Rabbit anti-thymocyte globulin (rATG) (rabbit). The data set is described as follows: cell-based or functional assay. Particulars: scale: of 11 subjects with intact rATG remaining.
In data set [2] the test system is rATG. The data set is described as follows: In vitro cleavage of rATG by imlifidase in post-dose sera (SDS-PAGE and Western blot). The data set is classed as biochemical, rabbit. Particulars: sera 96 hours post-imlifidase, 50 µg/mL rATG, 2 hours at 37° C. Here is the method:
(§1) FIG. 5. Mean imlifidase concentration vs. nominal time from dosing (N=15). Data BLQ are included in mean calculation as BLQ/2. SD indicated with bars. FIG. 6. In vitro cleavage of rATG by imlifidase over time. Columns indicate number of subjects with visible intact rATG on Western blot post-imlifidase (N=11).
(§2) The cleavage pattern of rATG was investigated with sera from healthy subjects (n=11) treated with 0.25 mg/kg imlifidase (EudraCT number: 2019-002770-31). Serum samples were incubated with a fixed, clinically relevant, concentration of 50 µg/mL rATG (commonly observed after a dose of 1.5 mg/kg), for 2 hours at 37° C. Serum samples were collected pre-imlifidase through 14 days post-imlifidase and were analyzed using SDS-PAGE and Western blot, developed with a goat anti-rabbit IgG, F(ab′)2 specific antibody to evaluate the cleavage of rATG. Imlifidase concentration was analyzed using a validated electroluminescence immunoassay based on MSD technology.
(In general: Immunoblotting shows a protein as a band on a membrane.)

The subject of data set [3] is B6.CD45.2 donor bone marrow cells. The data set is described as follows: Short-term survival of donor BMC in sensitized recipients. The data set is classed as in vivo, NOD mice. To be noted: T cell-depleted NOD, enzyme 4 h prior to BMT, four hours post-BMT. An excerpt: FIG. 2. EndoS-imlifidase reduces DSA-mediated killing of donor BMC in sensitized recipients. (A-C) Naive NOD mice were immunized with FVB splenocytes four weeks prior to the administration of EndoS-imlifidase. Sera were harvested prior to immunization, prior to and four hours after enzyme treatment. Representative histograms on the left are for DSA-IgG Fc (panel A), DSA-IgG1 Fc (panel B), DSA-IgG3 Fc (panel C) and DSA-IgG3 heavy chain (panel D) with sera at a 1:25 dilution. Mean fluorescence intensity (MFI) of DSA in the titrated sera is shown on the right. Mean±SEM are shown. Ratio paired t test was used to compare MFI of DSA before and after enzyme treatment at each serum dilution with *p<0.05, **p<0.01. (D) Schematic of the experiment shown in E-F. Naive NOD mice were immunized with B6.CD45.1 splenocytes four weeks prior to injection of T cell depleting mAbs. […] Splenocytes and bone marrow cells were analysed for the expression of MHC-I H-2K^b and CD45.2. […]
To determine the short-term survival of donor BMC in sensitized recipients, NOD mice that had been sensitized to B6.CD45.1 splenocytes were T cell-depleted (anti-CD4, 0.25 mg, anti-CD8, 0.25 mg, anti-CD90 0.3 mg, i.p.) two days prior to BMT and i.v. injected with EndoS and imlifidase 4 hours prior to BMT (80×10^6 B6.CD45.2 BMC via i.v. injection). Splenocytes and BMC were analyzed at 4 hours post BMC injection.

In data set [4] the test system is plasma IgG-pool. To be noted: humans, cited from earlier work.
A short description of data set [5]: Imlifidase serum concentration in healthy subjects. Format: in vivo, human. To be noted: 0.25 mg/kg imlifidase, 96 hours. Here is the method: as §1, §2
For data set [6], the system named is anti-MHC-I H-2K^b mAb (mouse IgG2b) mediated killing of donor BMC. The data set is described as follows: In vivo EndoS mediated monoclonal DSA inhibition assay (NOD recipients). On the set-up: species or system NOD mice. Here is the method:
(§3) FIG. 1. EndoS inhibits monoclonal DSA mediated killing of donor bone marrow cells. Naive NOD (panel A-B) or B6.H-2^g7 (panel C-D) were given 30 µg EndoS and/or anti-H-2K^b mAb (10 µg or 100 µg) intravenously four hours prior to the infusion of a mixture of CFSE labeled NOD/CTV labeled B6 bone marrow cells (BMC; panel A-B) or CFSE labeled B6.H-2^g7/CTV labeled NOD.H-2^b BMC (panel C-D). Shown are experiment protocols for NOD (panel A) and B6.H-2^g7 (panel C). Shown are the ratios of dye labeled B6 to NOD cells (panel B) or NOD.H-2^b to B6.H-2^g7 cells (panel D) in the blood (left panels) collected one to three hours after bone marrow transplant (BMT), in host spleens (middle panels) and bone marrow (BM, right panels) collected at four hours after BMT. Mean±SEM are shown. Data were pooled from five (panel B) and four (panel D) independent experiments. Mann-Whitney U test (middle and right panels) was used for the comparisons shown; *p<0.05 and **p<0.01.
NOD or B6.H-2^g7 mice were i.v. injected with vehicle, anti-MHC-I H-2K^b (10 µg) alone, or a mixture of EndoS (30 µg) and anti-MHC-I H-2K^b (10 µg or 100 µg) as a pretreatment. EndoS and anti-H-2K^b were mixed right before injection. Four hours after this pretreatment, five million cells of a 1:1 mixture of carboxyfluorescein succinimidyl ester (CFSE) labeled NOD and cell trace violet dye (CTV) labeled B6 bone marrow cells (BMC) were i.v. injected into the pre-treated NOD mice. Similarly, a 1:1 mixture of CFSE labeled B6.H-2^g7 and CTV labeled NOD.H-2^b BMC were injected into pre-treated B6.H-2^g7 mice. Blood was collected at 1, 2, and 3 hours post cell administration and analyzed by flow cytometry. Splenocytes and BMC from one hind limb were collected from each mouse and analyzed at four hours post BMC injection.
To evaluate the effect of EndoS on inhibiting the antibody-mediated killing of donor BMC, DSA passive transfer experiments were performed. Of all DSA, anti-donor MHC or HLA antibodies are of most importance in the clinic. Therefore, naïve NOD mice were injected with mouse IgG2b antibodies targeting MHC-I K^b expressing cells, treated with EndoS or left untreated, and thereafter subjected to bone marrow transfer from B6 mice.

The test system is the same in data set [7]. Kind of data set: In vivo EndoS mediated monoclonal DSA inhibition assay (complement sufficient B6.H-2^g7 recipients). Particulars: compared to NOD hosts. The arrangement: species or system B6.H-2^g7 mice. Here is the method: as §3
NOD or B6.H-2^g7 mice were i.v. injected with vehicle, anti-MHC-I H-2K^b (10 µg) alone, or a mixture of EndoS (30 µg) and anti-MHC-I H-2K^b (10 µg or 100 µg) as a pretreatment. […] Blood was collected at 1, 2, and 3 hours post cell administration and analyzed by flow cytometry. Splenocytes and BMC from one hind limb were collected from each mouse and analyzed at four hours post BMC injection. […]

For the molecule “Imlifidase (IdeS, Immunoglobulin G-degrading enzyme of S. pyogenes)”, the cleavage of rATG in sera of imlifidase-treated subjects (SDS-PAGE and Western blot), 96 hours post-imlifidase in data set [1] turned out to be 8.

B1: imlifidase: IdeS (Immunoglobulin G-degrading enzyme of S.pyogenes), IgG cysteine protease; mature sequence SEQ ID NO: 2 (protein)
chain: DSFSANQEIRYSEVTPYHVTSVWTKGVTPPANFTQGEDVFHAPYVANQGWYDITKTFNGKDDLLCGAATAGNMLHWWFDQNKDQIKRYLEEHPEKQKINFNGEQMFDVKEAIDTKNHQLDSKLFEYFKEKAFPYLSTKHLGVFPDHVIDMFINGYRLSLTNHGPTPVKEGSKDPRGGIFDAVFTRGDQSKLLTSRHDFKEKNLKEISDLIKKELTEGKALGLSHTYANVRINHVINLWGADFDSNGNLKAIYVTDSDSNASIGMKKYFVGVNSAGKVAISAKEIKEDNIGAQVLGLFTLSTGQDSWNQTN
modifications: Streptococcus pyogenes
As to B1, the “subjects in which complete cleavage of rATG was avoided” value in data set [2] is 8 of 11. Moreover, in data set [3], the “B6.CD45.2 donor cells in BM” value came to 0.15% and the “B6.CD45.2 donor cells in spleen” value is given as 0.46%. The “cleavage of the entire plasma IgG-pool” value in data set [4] (after dosing with IdeS) is reported as “within minutes”. For the same molecule, in data set [4] (until newly synthesized IgG appeared), the “time IgG levels in blood remain low” value was “more than a week”. Moreover, in data set [5], the “imlifidase serum concentration, individual variation” value is below 0.1 to 1.8 µg/mL and the “imlifidase serum concentration, mean” value came out at 0.5 µg/mL.

B2: EndoS: Endoglycosidase of S. pyogenes, IgG endoglycosidase; mature sequence SEQ ID NO: 90 (protein)
chain: EEKTVQVQKGLPSIDSLHYLSENSKKEFKEELSKAGQESQKVKEILAKAQQADKQAQELAKMKIPEKIPMKPLHGPLYGGYFRTWHDKTSDPTEKDKVNSMGELPKEVDLAFIFHDWTKDYSLFWKELATKHVPKLNKQGTRVIRTIPWRFLAGGDNSGIAEDTSKYPNTPEGNKALAKAIVDEYVYKYNLDGLDVDVEHDSIPKVDKKEDTAGVERSIQVFEEIGKLIGPKGVDKSRLFIMDSTYMADKNPLIERGAPYINLLLVQVYGSQGEKGGWEPVSNRPEKTMEERWQGYSKYIRPEQYMIGFSFYEENAQEGNLWYDINSRKDEDKANGINTDITGTRAERYARWQPKTGGVKGGIFSYAIDRDGVAHQPKKYAKQKEFKDATDNIFHSDYSVSKALKTVMLKDKSYDLIDEKDFPDKALREAVMAQVGTRKGDLERFNGTLRLDNPAIQSLEGLNKFKKLAQLDLIGLSRITKLDRSVLPANMKPGKDTLETVLETYKKDNKEEPATIPPVSLKVSGLTGLKELDLSGFDRETLAGLDAATLTSLEKVDISGNKLDLAPGTENRQIFDTMLSTISNHVGSNEQTVKFDKQKPTGHYPDTYGKTSLRLPVANEKVDLQSQLLFGTVTNQGTLINSEADYKAYQNHKIAGRSFVDSNYHYNNFKVSYENYTVKVTDSTLGTTTDKTLATDKEETYKVDFFSPADKTKAVHTAKVIVGDEKTMMVNLAEGATVIGGSADPVNARKVFDGQLGSETDNISLGWDSKQSIIFKLKEDGLIKHWRFFNDSARNPETTNKPIQEASLQIFNIKDYNLDNLLENPNKFDDEKYWITVDTYSAQGERATAFSNTLNNITSKYWRVVFDTKGDRYSSPVVPELQILGYPLPNADTIMKTVTTAKELSQQKDKFSQKMLDELKIKEMALETSLNSKIFDVTAINANAGVLKDCIEKRQLLKK
modifications: Streptococcus pyogenes
Consider B2, for which the “ratio of B6 to NOD cells in blood” value is “significantly increased” in data set [6] (30 µg EndoS i.v. with 10 µg anti-K^b mAb vs mAb alone, one hour post-BMT, stable at two and three hours); “increased ratio” in data set [6] (EndoS with 100 µg anti-K^b mAb vs mAb alone, one and two hours post-BMT); “did not last” in data set [6] (EndoS with 100 µg anti-K^b mAb, three hours post-BMT). Moreover, in data set [6] (EndoS with 10 µg anti-K^b mAb vs mAb only, four hours post-BMT), the “ratio of B6 to NOD cells in BM and spleen” value is “significant increase”. Besides, the “ratios of donor to recipient cells” value in data set [7] was “improved”.
